Source: US20250264433A1

Target: peptide #49+50 (combined sequences of EspB peptides #49 and #50) (Enteropathogenic Escherichia coli (EPEC))
Assay: ELISA, plate coated with peptide #49+50, serially diluted mAb, anti-human IgG-HRP

B1: mAb-EspB-B7 (antibody, V domains shown)
VH: EVQLLESGGGLVQPGGSLRLSCAASGFTFSHYAMNWVRQAPGKGLEWVSAINSNGDSTYYPDTVKDRFTISRDNSKNTLYLQMNSLRAEDTAVYYCARDRRAGYFDYWGQGTLVTVSS
VL: DIVLTQPPSASGTPGQRVTISCSGSRDNIGKNYVSWYQQLPGTAPKLLIYRNNQRPSGVPDRFSGSKSGTSASLAISGLRSEDEADYYCSAWDTSLNAYVFGPGTQLTVL
- EC50 (read off the curve): 0.4 µg/mL
